# Experimental data from publication PMC10718286.
# Tested on: C[S+](CC[C@H](N)C(=O)O)C[C@H]1O[C@@H](n2cnc3c(N)ncnc32)[C@H](O)[C@@H]1O
# Test: purified protein
# Details: catalytic SET domain; varied: cofactor
substance,measurement,value
"SETDB1 (full-length, SETDB1-FL) (Homo sapiens)",kcat,8.06e-05 s⁻¹
same,kcat/Km,88.9 M⁻¹ s⁻¹
